Target: human CD40 on cells (human, UniProt P25942 21-277)
Test: cell-based or functional assay

Chain of human CD40 on cells (P25942 21-277 limits assumed): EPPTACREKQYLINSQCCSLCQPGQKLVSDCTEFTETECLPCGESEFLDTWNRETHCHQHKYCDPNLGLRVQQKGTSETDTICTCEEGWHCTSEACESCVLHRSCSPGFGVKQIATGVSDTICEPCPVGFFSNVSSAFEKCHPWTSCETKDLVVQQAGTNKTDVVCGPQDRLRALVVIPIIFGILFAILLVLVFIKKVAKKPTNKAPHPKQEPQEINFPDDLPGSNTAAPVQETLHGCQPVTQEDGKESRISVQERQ

B1: CFZ533 (antibody, human IgG1, kappa, N297A)
heavy: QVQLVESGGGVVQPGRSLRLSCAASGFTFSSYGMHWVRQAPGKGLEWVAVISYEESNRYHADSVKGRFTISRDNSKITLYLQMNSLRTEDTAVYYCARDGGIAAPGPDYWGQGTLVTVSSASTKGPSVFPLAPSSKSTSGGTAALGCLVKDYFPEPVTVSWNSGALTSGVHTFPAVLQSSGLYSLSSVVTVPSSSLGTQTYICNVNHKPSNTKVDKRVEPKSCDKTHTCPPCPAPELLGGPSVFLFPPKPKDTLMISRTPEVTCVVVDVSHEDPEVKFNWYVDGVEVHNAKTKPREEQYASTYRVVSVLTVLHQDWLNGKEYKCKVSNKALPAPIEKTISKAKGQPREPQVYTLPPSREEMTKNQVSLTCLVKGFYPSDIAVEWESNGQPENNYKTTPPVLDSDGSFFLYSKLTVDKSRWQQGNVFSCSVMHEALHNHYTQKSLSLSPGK
light: DIVMTQSPLSLTVTPGEPASISCRSSQSLLYSNGYNYLDWYLQKPGQSPQVLISLGSNRASGVPDRFSGSGSGTDFTLKISRVEAEDVGVYYCMQARQTPFTFGPGTKVDIRRTVAAPSVFIFPPSDEQLKSGTASVVCLLNNFYPREAKVQWKVDNALQSGNSQESVTEQDSKDSTYSLSSTLTLSKADYEKHKVYACEVTHQGLSSPVTKSFNRGEC
IC50 (read off the curve), rCD154-induced CD69 expression on CD20pos B cells: ~0.1 µg/mL
